# Test results as given in patent US6602700B1, “Phenolic acid esterases, coding sequences and methods” (University of Georgia Research Foundation, Inc., priority 1998, dated 2003).
# B1: FAE287: XynZ amino acids 20-307; lacks the CBD but contains the proline rich linker (protein, listed as Clostridium thermocellum)
# chain: LVTISSTSAASLPTMPPSGYDQVRNGVPRGQVVNISYFSTATNSTRPARVYLPPGYSKDKKYSVLYLLHGIGGSENDWFEGGGRANVIADNLIAEGKIKPLIIVTPNTNAAGPGIADGYENFTKDLLNSLIPYIESNYSVYTDREHRAIAGLSMGGGQSFNIGLTNLDKFAYIGPISAAPNTYPNERLFPDGGKAAREKLKLLFIACGTNDSLIGFGQRVHEYCVANNINHVYWLIQGGGHDFNVWKPGLWNFLQMADEAGLTRDGNTPVPTPSPKPANTRIEAEDYD
# B2: FAE: C. thermocellum XynZ amino acids 20-286 expressed in E. coli; feruloyl esterase domain without linker or CBD (protein, listed as Clostridium thermocellum)
# chain: LVTISSTSAASLPTMPPSGYDQVRNGVPRGQVVNISYFSTATNSTRPARVYLPPGYSKDKKYSVLYLLHGIGGSENDWFEGGGRANVIADNLIAEGKIKPLIIVTPNTNAAGPGIADGYENFTKDLLNSLIPYIESNYSVYTDREHRAIAGLSMGGGQSFNIGLTNLDKFAYIGPISAAPNTYPNERLFPDGGKAAREKLKLLFIACGTNDSLIGFGQRVHEYCVANNINHVYWLIQGGGHDFNVWKPGLWNFLQMADEAGLTRDGN
# B3: FAE227: XynZ amino acids 20-247; expressed but inactive truncation (protein, listed as Clostridium thermocellum)
# chain: LVTISSTSAASLPTMPPSGYDQVRNGVPRGQVVNISYFSTATNSTRPARVYLPPGYSKDKKYSVLYLLHGIGGSENDWFEGGGRANVIADNLIAEGKIKPLIIVTPNTNAAGPGIADGYENFTKDLLNSLIPYIESNYSVYTDREHRAIAGLSMGGGQSFNIGLTNLDKFAYIGPISAAPNTYPNERLFPDGGKAAREKLKLLFIACGTNDSLIGFGQRVHEYCVANN
# Assays:
# [1] = Feruloyl esterase activity of C. thermocellum enzymes, HPLC assay, FAXX as substrate; format: biochemical; settings: E. coli cell free extracts
# Procedure: (§1) Unless otherwise noted, all C. thermocellum enzyme assays were performed at 60° C. in 50 mM Na-citrate buffer, pH 6.0. One unit of enzyme activity was defined as the amount of enzyme that released 1 μmol of product min-1, and specific activity is given in units per milligram of protein. Feruloyl esterase activity was measured using a modified version of the assay described by Borneman et al. [Borneman etal. (1990) Anal. Biochem. 190:129-133]. The appropriately diluted protein sample (25 l) was added to 400 μl of buffer plus 8 mM of substrate. Samples were incubated at 60° C. for 5 min. and the reaction was stopped by adding 25 μl of 20% formic acid. Release of ferulic acid was measured via HPLC using a mobile phase of 10 mM Na-formate pH 3 and 30% (vol/vol) methanol. For routine assays, FAXX and FAX3 purified from wheat bran were used as substrates [Borneman et al. (1990) supra]. Ethyl-ferulate and ethyl-p-coumarate esters were a gift from D. E. Akin (USDA, Athens, Ga.). The hydrolysis of these (10 mM) were determined similarly to that of FAXX, but the HPLC analyses were performed with 50% methanol. HPLC runs were with a Hewlett Packard 1100 Series instrument equipped with an autosampler and diode array detector. Ferulic acid and p-coumaric acid were used as standards. To determine the amount of feruloyl and p-coumaroyl groups released from plant cell walls, wheat bran and Coastal Bermuda grass were ground in a Wiley mill to pass through a 250 μm screen. Plant samples of ten milligram were incubated for one hour in 400 μl of 50 mM Na-citrate buffer pH, 6.0 plus 25 μl of enzyme. After the addition of 25 μl of 20% formic acid to stop the reaction, the samples were centrifuged at 16,000×g in a microfuge and then assayed for FA and pCA by HPLC.
# [2] = C. thermocellum enzyme stability experiments (heat incubation, residual activity); format: physicochemical
# Procedure: Purified enzyme at a concentration of 13 μg/nMl was placed in a water bath at the appropriate temperature and incubated at intervals of one hour. Enzyme aliquots (25 μl) were removed and assays were performed in triplicate using FAX3 as a substrate as described above. FAE/CBD was tested at temperatures of 500, 600, and 70° C. while FAE was tested at 70°, 80° and 90° C.
# [3] = Routine feruloyl esterase assay of purified recombinant XynZ polypeptides (purification tables); format: biochemical; settings: purified preparation after heat treatment and TSK 3000SW gel filtration
# Procedure: as §1, with “To determine the amount of feruloyl and p-coumaroyl groups released from plant cell walls, wheat bran and Coastal Bermuda grass were ground in a Wiley mill to pass through a 250 μm screen. Plant samples of ten milligram were incubated for one hour in 400 μl of 50 mM Na-citrate buffer pH, 6.0 plus 25 μl of enzyme. After the addition of 25 μl of 20% formic acid to stop the reaction, the samples were centrifuged at 16,000×g in a microfuge and then assayed for FA and pCA by HPLC.” left out
# [4] = Feruloyl esterase activity of C. thermocellum enzymes, HPLC assay, FAX3 as substrate; format: biochemical; settings: pH 6.0, 60° C.
# Procedure: as §1, with “To determine the amount of feruloyl and p-coumaroyl groups released from plant cell walls, wheat bran and Coastal Bermuda grass were ground in a Wiley mill to pass through a 250 μm screen. Plant samples of ten milligram were incubated for one hour in 400 μl of 50 mM Na-citrate buffer pH, 6.0 plus 25 μl of enzyme. After the addition of 25 μl of 20% formic acid to stop the reaction, the samples were centrifuged at 16,000×g in a microfuge and then assayed for FA and pCA by HPLC.” left out
# [5] = Storage stability of purified XynZ-derived FAE at 4° C.; format: physicochemical; settings: 4° C. in elution buffer (50 mM Tris pH 7.5, 5% glycerol)
# Procedure: Alternatively, the 100,000×g supernatant after the heat treatment was concentrated to a volume of 2 ml with a Centricon 10 concentrator (Amicon, Millipore, Bedford, Mass.) and then applied to a TSK3000SW column (Tosohaas) which was run with 50 mM Tris pH 7.5 and 5% glycerol as solvent.
# [6] = Cellulose binding of XynZ constructs; settings: purified from recombinant E. coli
Molecule,Feruloyl esterase activity (hydrolysis of FAXX) of construct expressed in E. coli [1],"Relative activity after heat incubation ([2]; 80° C., after three hours of incubation)","Relative activity after heat incubation ([2]; 90° C., after 1 hour of incubation)",Thermal stability ([2]; temperatures up to 70° C. for 6 hours),Specific Activity [3],Km [4],Vmax [4],Storage stability [5],Removal of feruloyl esterase activity by Avicel and acid swollen cellulose adsorption (cellulose binding) [6],Feruloyl esterase activity (hydrolysis of FAXX) of construct expressed in E. coli ([1]; listed as XynZ UD)
B1,exhibited feruloyl esterase activity,,,,,,,,,
B2,exhibited feruloyl esterase activity,around 50%,most of the relative activity was destroyed,stable,26.6 U/mg,10.5 mM,28.2 μmol ferulic acid released min-1 mg-1,stable for at least a month,not,high levels of feruloyl esterase activity
B3,inactive,,,,,,,,,
